Assay [1] deals with E. coli F-ATPase subunit c (cysteine-free F-ATPase) (E. coli) (UniProt P68699). Description: cryo-EM structure; purified cysteine-free E. coli F-ATPase in digitonin at 3.58 μM, no nucleotides added; three rotational states at 6.9, 7.8 and 8.5 Å; models built by docking crystal, NMR and homology models, side chains pruned to Cα.
Assay [2] deals with E. coli F-ATPase subunit b (cysteine-free F-ATPase) (E. coli) (UniProt P0ABA0). The description is as above.

In paper PMC5214741 one finds stoichiometry N data, which are given here for 2 substances.

As usually defined, the stoichiometry N is the number of molecules, sites or subunits per partner or assembly.

In turn, “E. coli F-ATPase subunit c (cysteine-free F-ATPase) (from UniProt P68699 1-79) (natural protein)” registered a stoichiometry N in assay [1] of 10. Turning to “E. coli F-ATPase subunit b (cysteine-free F-ATPase) (from UniProt P0ABA0 2-156) (natural protein)”, in assay [2], the stoichiometry N stood at 2.
